Data published in the supplement of paper PMC11246515.
± gives the standard deviation of the averaged measurements.

Experiment: total protein half-life in vivo (active degradation + dilution); higher = more stable protein
[1] = E. coli NCM3722 delta-clpP delta-lon delta-hslV, growth: N-lim chemostat, doubling time 6 h
[2] = E. coli NCM3722 delta-clpP, growth: N-lim chemostat, doubling time 6 h
[3] = E. coli NCM3722 delta-hslV, growth: N-lim chemostat, doubling time 6 h
[4] = E. coli NCM3722 delta-lon, growth: N-lim chemostat, doubling time 6 h
[5] = E. coli NCM3722 delta-smpB, growth: N-lim chemostat, doubling time 6 h
[6] = wild type E. coli NCM3722, growth: C-lim chemostat, doubling time 3 h
[7] = wild type E. coli NCM3722, growth: C-lim chemostat, doubling time 6 h
[8] = wild type E. coli NCM3722, growth: C-lim chemostat, doubling time 12 h
[9] = wild type E. coli NCM3722, growth: N-lim chemostat, doubling time 6 h
[10] = wild type E. coli NCM3722, growth: N-lim chemostat, doubling time 12 h
[11] = wild type E. coli NCM3722, growth: P-lim chemostat, doubling time 6 h
[12] = wild type E. coli NCM3722, growth: P-lim chemostat, doubling time 12 h

Sequence	total protein half-life in vivo [1]	total protein half-life in vivo [2]	total protein half-life in vivo [3]	total protein half-life in vivo [4]	total protein half-life in vivo [5]	total protein half-life in vivo [6]	total protein half-life in vivo [7]	total protein half-life in vivo [8]	total protein half-life in vivo [9]	total protein half-life in vivo [10]	total protein half-life in vivo [11]	total protein half-life in vivo [12]
MNSLFASTARGLEELLKTELENLGAVECQVVQGGVHFKGDTRLVYQSLMWSRLASRIMLPLGECKVYSDLDLYLGVQAINWTEMFNPGATFAVHFSGLNDTIRNSQYGAMKVKDAIVDAFTRKNLPRPNVDRDAPDIRVNVWLHKETASIALDLSGDGLHLRGYRDRAGIAPIKETLAAAIVMRSGWQPGTPLLDPMCGSGTLLIEAAMLATDRAPGLHRGRWGFSGWAQHDEAIWQEVKAEAQTRARKGLAEYSSHFYGSDSDARVIQRARTNARLAGIGELITFEVKDVAQLTNPLPKGPYGTVLSNPPYGERLDSEPALIALHSLLGRIMKNQFGGWNLSLFSASPDLLSCLQLRADKQYKAKNGPLDCVQKNYHVAESTPDSKPAMVAEDYTNRLRKNLKKFEKWARQEGIECYRLYDADLPEYNVAVDRYADWVVVQEYAPPKTIDAHKARQRLFDIIAATISVLGIAPNKLVLKTRERQKGKNQYQKLGEKGEFLEVTEYNAHLWVNLTDYLDTGLFLDHRIARRMLGQMSKGKDFLNLFSYTGSATVHAGLGGARSTTTVDMSRTYLEWAERNLRLNGLTGRAHRLIQADCLAWLREANEQFDLIFIDPPTFSNSKRMEDAFDVQRDHLALMKDLKRLLRAGGTIMFSNNKRGFRMDLDGLAKLGLKAQEITQKTLSQDFARNRQIHNCWLITAA	5.837 ± 0.045 h	6.06 ± 0.79 h	5.92 ± 0.34 h	6.466 ± 0.03 h	5.37 ± 0.12 h	3.13 ± 0.17 h	6.101 ± 0.011 h	10.4 ± 0.11 h	5.428 ± 0.015 h	10.47 ± 0.039 h	6.129 ± 0.044 h	13.1 ± 1.5 h
MNSLRPELLELTPQALTALSNAGFVKRSLKELENGNVPEISHENDALIATFSDGVRTQLANGQALKEAQCSCGANGMCRHRVMLVLSYQRLCATTQSTEKEEEWDPAIWLEELATLPDATRKRAQALVAKGITIELFCAPGEIPSARLPMSDVRFYSRSSIRFARCDCIEGTLCEHVVLAVQAFVEAKAQQAEFNHLIWQMRSEHVTSSDDPFASEEGNACRQYVQQLSQTLWLGGISQPLIHYEAAFNRALQAAETCNWRWVSESLRQLRASVDAFHARASHYNAGECLHQLAALNSRLNCAQEMARRDSIGEVPPVPWRTVVGSGIAGEAKLDHLRLVSLGMRCWQDIEHYGLRIWFTDPDTGSILHLSRSWPRSEQENSPAATRRLFSFQAGALAGGQIVSQAAKRSADGELLLATRNRLSSVVPLSPDAWQMLSAPLRQPGIVALREYLRQRPPACIRPLNQVDNLFILPVAECISLGWDSSRQTLDAQVISGEGEDNVLTLSLPASASAPYAVERMAALLQQTDDPVCLVSGFVSFVEGQLTLEPRVMMTKTRAWALDAETTPVAPLPSASVLPVPSTAHQLLIRCQALLIQLLHNGWRYQEQSAIGQA	3.47 h	–	–	–	–	–	–	–	–	–	–	–
MNSLYTAEGVMDKHSLWQRYVPLVRHEALRLQVRLPASVELDDLLQAGGIGLLNAVERYDALQGTAFTTYAVQRIRGAMLDELRSRDWVPRSVRRNAREVAQAIGQLEQELGRNATETEVAERLGIDIADYRQMLLDTNNSQLFSYDEWREEHGDSIELVTDDHQRENPLQQLLDSNLRQRVMEAIETLPEREKLVLTLYYQEELNLKEIGAVLEVGESRVSQLHSQAIKRLRTKLGKL [P0AEM6]	4.94 h	–	–	–	–	1.78 ± 0.19 h	2.5 ± 0.38 h	3 ± 0.9 h	–	–	–	–
MNSNKELMQRRSQAIPRGVGQIHPIFADRAENCRVWDVEGREYLDFAGGIAVLNTGHLHPKVVAAVEAQLKKLSHTCFQVLAYEPYLELCEIMNQKVPGDFAKKTLLVTTGSEAVENAVKIARAATKRSGTIAFSGAYHGRTHYTLALTGKVNPYSAGMGLMPGHVYRALYPCPLHGISEDDAIASIHRIFKNDAAPEDIAAIVIEPVQGEGGFYASSPAFMQRLRALCDEHGIMLIADEVQSGAGRTGTLFAMEQMGVAPDLTTFAKSIAGGFPLAGVTGRAEVMDAVAPGGLGGTYAGNPIACVAALEVLKVFEQENLLQKANDLGQKLKDGLLAIAEKHPEIGDVRGLGAMIAIELFEDGDHNKPDAKLTAEIVARARDKGLILLSCGPYYNVLRILVPLTIEDAQIRQGLEIISQCFDEAKQ	3.78 ± 0.21 h	2.96 ± 0.38 h	2.98 ± 0.17 h	3.23 ± 0.15 h	2.83 ± 0.11 h	2.993 ± 0.012 h	4.86 ± 0.26 h	9.33 ± 1.2 h	3.04 ± 0.32 h	4.1 ± 0.17 h	5.414 ± 0.018 h	9.92 ± 0.68 h
MNSRQQTILQMVIDQGQVSVTDLAKATGVSEVTIRQDLNTLEKLSYLRRAHGFAVSLDSDDVETRMMSNYTLKRELAEFAASLVQPGETIFIENGSSNALLARTLGEQKKNVTIITVSSYIAHLLKDAPCEVILLGGVYQKKSESMVGPLTRQCIQQVHFSKAFIGIDGWQPETGFTGRDMMRTDVVNAVLEKECEAIVLTDSSKFGAVHSYSIGPVERFNRVITDSKIRASDLMHLEHSKLTIHVVDI	6.45 ± 1.4 h	6.46 ± 0.62 h	6.54 ± 0.67 h	6.01 ± 0.45 h	5.76 ± 0.27 h	2.87 ± 0.21 h	5.51 ± 0.27 h	11.6 ± 0.87 h	5.91 ± 0.31 h	–	5.57 ± 0.19 h	13.3 ± 0.69 h
